This assay deals with human GPR49 (LGR5), on cells (human) (UniProt O75473). Briefly: cell-based or functional assay.
Chain of UniProt O75473 (O75473 22-907 limits assumed): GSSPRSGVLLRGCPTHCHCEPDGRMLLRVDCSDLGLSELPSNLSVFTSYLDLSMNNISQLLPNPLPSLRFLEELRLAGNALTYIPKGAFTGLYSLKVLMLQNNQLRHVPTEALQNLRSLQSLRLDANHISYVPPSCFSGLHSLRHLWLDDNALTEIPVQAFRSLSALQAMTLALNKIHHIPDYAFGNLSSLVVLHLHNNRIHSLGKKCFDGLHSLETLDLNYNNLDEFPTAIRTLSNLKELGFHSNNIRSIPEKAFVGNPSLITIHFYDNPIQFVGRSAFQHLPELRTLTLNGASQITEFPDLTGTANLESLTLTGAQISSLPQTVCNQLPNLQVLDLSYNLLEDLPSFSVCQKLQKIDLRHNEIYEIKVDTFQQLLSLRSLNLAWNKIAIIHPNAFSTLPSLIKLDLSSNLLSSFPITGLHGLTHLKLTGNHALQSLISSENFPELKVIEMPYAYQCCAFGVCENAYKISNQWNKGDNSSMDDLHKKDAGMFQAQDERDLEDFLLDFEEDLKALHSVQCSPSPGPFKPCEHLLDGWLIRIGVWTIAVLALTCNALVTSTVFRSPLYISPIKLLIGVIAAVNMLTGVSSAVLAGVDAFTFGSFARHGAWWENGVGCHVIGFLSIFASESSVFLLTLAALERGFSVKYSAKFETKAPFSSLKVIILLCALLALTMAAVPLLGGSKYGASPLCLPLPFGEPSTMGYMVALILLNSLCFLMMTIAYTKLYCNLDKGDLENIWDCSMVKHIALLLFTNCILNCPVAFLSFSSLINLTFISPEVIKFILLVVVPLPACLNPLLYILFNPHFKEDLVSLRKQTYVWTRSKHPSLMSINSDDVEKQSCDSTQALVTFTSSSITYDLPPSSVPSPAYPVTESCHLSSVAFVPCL

Turning to R-spondin 1 (ligand), the increase in proliferation of GPR49-3T3 clone 28 is 4 fold.
